Source: patent US20040018971A1 (published 2004)

B1: HER2/NEU A03 motif peptide, position 182, 9 amino acids (peptide)
peptide: TLIDTNRSR
notes: Synthetic peptide
B2: HER2/NEU A03 motif peptide, position 948, 10 amino acids (peptide)
peptide: TIDVYMIMVK
notes: Synthetic peptide
B3: HER2/NEU A03 motif peptide, position 423, 10 amino acids (peptide)
peptide: SVFQNLQVIR
notes: Synthetic peptide
B4: HER2/NEU A03 motif peptide, position 545, 10 amino acids (peptide)
peptide: RVLQGLPREY
notes: Synthetic peptide
B5: HER2/NEU A03 motif peptide, position 868, 10 amino acids (peptide)
peptide: RLLDIDETEY
notes: Synthetic peptide
B6: HER2/NEU A03 motif peptide, position 208, 10 amino acids (peptide)
peptide: SSEDCQSLTR
notes: Synthetic peptide
B7: HER2/NEU A03 motif peptide, position 166, 10 amino acids (peptide)
peptide: TILWKDIFHK
notes: Synthetic peptide; also called Her2/neu.166
B8: HER2/NEU A03 motif peptide, position 402, 10 amino acids (peptide)
peptide: TLEEITGYLY
notes: Synthetic peptide; also called Her2/neu.402
B9: HER2/NEU A03 motif peptide, position 978, 9 amino acids (peptide)
peptide: RMARDPQRF
notes: Synthetic peptide
B10: HER2/NEU A03 motif peptide, position 840, 10 amino acids (peptide)
peptide: RLVHRDLAAR
notes: Synthetic peptide
B11: HER2/NEU A03 motif peptide, position 281, 9 amino acids (peptide)
peptide: SMPNPEGRY
notes: Synthetic peptide
B12: HER2/NEU A03 motif peptide, position 713, 10 amino acids (peptide)
peptide: RILKETELRK
notes: Synthetic peptide
B13: HER2/NEU A03 motif peptide, position 103, 10 amino acids (peptide)
peptide: RGTQLFEDNY
notes: Synthetic peptide
B14: HER2/NEU A03 motif peptide, position 713, 9 amino acids (peptide)
peptide: RILKETELR
notes: Synthetic peptide
B15: HER2/neu peptide, position 666, 9 amino acids (peptide)
peptide: VLGVVFGIL
notes: Synthetic peptide; also called HER2/neu 666-674
B16: HER2/neu peptide, position 1172, 10 amino acids (peptide)
peptide: TLSPGKNGVV
notes: Synthetic peptide; also called HER2/neu 1172-1181
B17: HER2/neu peptide, position 725, 10 amino acids (peptide)
peptide: VLGSGAFGTV
notes: Synthetic peptide; also called HER2/neu 725-734
B18: HER2/neu peptide, position 402, 9 amino acids (peptide)
peptide: TLEEITGYL
notes: Synthetic peptide; also called HER2/neu 402-410
B19: HER2/neu peptide, position 546, 10 amino acids (peptide)
peptide: VLQGLPREYV
notes: Synthetic peptide
B20: Her2/neu.995.F1 (peptide)
peptide: FPASPLDSTF
notes: 10-mer analog of the HER2/neu peptide starting at position 995
B21: Her2/neu.921.F1I11 (peptide)
peptide: FPYDGIPAREI
notes: 11-mer B7 supermotif analog of the HER2/neu peptide starting at position 921
B22: Her2/neu.1101.F1I9 (peptide)
peptide: FPTHDPSPI
B23: Her2/neu.1157.F1I11 (peptide)
peptide: FPAARPAGATI
notes: 11-mer analog of the HER2/neu peptide starting at position 1157
B24: Her2/neu.1157.F1 (peptide)
peptide: FPAARPAGATL
notes: as for B23
B25: Her2/neu.1073.F1I9 (peptide)
peptide: FPLAPSEGI
notes: 9-mer analog of the HER2/neu peptide starting at position 1073
B26: Her2/neu.1120.F1I9 (peptide)
peptide: FPSETDGYI
B27: Her2/neu.1120.F1 (peptide)
peptide: FPSETDGYV
B28: Her2/neu.1151.F1I10 (peptide)
peptide: FPREGPLPAI
notes: 10-mer analog of the HER2/neu peptide starting at position 1151
B29: Her2/neu.998.F1I11 (peptide)
peptide: FPLDSTFYRSI
notes: 11-mer analog of the HER2/neu peptide starting at position 998
B30: Her2/neu.998.F1 (peptide)
peptide: FPLDSTFYRSL
notes: as for B29
B31: Her2/neu.1155.F1I9 (peptide)
peptide: FPLPAARPI
notes: 9-mer analog of the HER2/neu peptide starting at position 1155
B32: Her2/neu.966.F1I11 (peptide)
peptide: FPRFRELVSEI
notes: 11-mer analog of the HER2/neu peptide starting at position 966
B33: Her2/neu.1155.F1 (peptide)
peptide: FPLPAARPA
notes: as for B31
B34: HER2/neu peptide, position 915, 9 amino acids (peptide)
peptide: LMTFGAKPY
notes: Synthetic peptide; also called Her2/neu.915 (9-mer)
B35: HER2/neu peptide, position 745, 9 amino acids (peptide)
peptide: NVKIPVAIK
notes: Synthetic peptide; also called Her2/neu.745 (9-mer)
B36: HER2/neu peptide, position 181, 10 amino acids (peptide)
peptide: LTLIDTNRSR
notes: Synthetic peptide; also called Her2/neu.181 (10-mer)
B37: HER2/neu peptide, position 1014, 10 amino acids (peptide)
peptide: MGDLVDAEEY
notes: Synthetic peptide; also called Her2/neu.1014 (10-mer)
B38: HER2/neu peptide, position 889, 10 amino acids (peptide)
peptide: MALESILRRR
notes: Synthetic peptide
B39: HER2/neu peptide, position 674, 10 amino acids (peptide)
peptide: LIKRRQQKIR
notes: Synthetic peptide; also called Her2/neu.674 (10-mer)
B40: HER2/neu peptide, position 960, 9 amino acids (peptide)
peptide: MIDSECRPR
notes: Synthetic peptide; also called Her2/neu.960 (9-mer)
B41: HER2/neu peptide, position 726, 10 amino acids (peptide)
peptide: LGSGAFGTVY
notes: Synthetic peptide; also called Her2/neu.726 (10-mer)
B42: HER2/neu peptide, position 360, 9 amino acids (peptide)
peptide: NIQEFAGCK
notes: Synthetic peptide; also called Her2/neu.360 (9-mer)
B43: HER2/neu peptide, position 360, 10 amino acids (peptide)
peptide: NIQEFAGCKK
notes: Synthetic peptide; also called Her2/neu.360 (10-mer)
B44: HER2/neu peptide, position 822, 10 amino acids (peptide)
peptide: LLNWCMQIAK
notes: Synthetic peptide
B45: HER2/neu peptide, position 154, 10 amino acids (peptide)
peptide: LIQRNPQLCY
notes: Synthetic peptide; also called Her2/neu.154 (10-mer)
B46: HER2/neu peptide, position 841, 9 amino acids (peptide)
peptide: LVHRDLAAR
notes: Synthetic peptide; also called Her2/neu.841 (9-mer)
B47: HER2/neu peptide, position 220, 9 amino acids (CAGGCARCK) (peptide)
peptide: CAGGCARCK
notes: also called Her2/neu.220 9-mer
B48: HER2/neu peptide, position 240, 9 amino acids (CAAGCTGPK) (peptide)
peptide: CAAGCTGPK
notes: also called Her2/neu.240 9-mer
B49: HER2/neu peptide, position 295, 9 amino acids (CVTACPYNY) (peptide)
peptide: CVTACPYNY
notes: also called Her2/neu.295 9-mer
B50: HER2/neu peptide, position 195, 9 amino acids (CSPMCKGSR) (peptide)
peptide: CSPMCKGSR
notes: also called Her2/neu.195 9-mer
B51: HER2/neu peptide, position 596, 10 amino acids (CVARCPSGVK) (peptide)
peptide: CVARCPSGVK
notes: also called Her2/neu.596 10-mer
B52: HER2/neu peptide, position 26, 9 amino acids (CTGTDMKLR) (peptide)
peptide: CTGTDMKLR
notes: also called Her2/neu.26 9-mer
B53: HER2/neu peptide, position 528, 9 amino acids (CVNCSQFLR) (peptide)
peptide: CVNCSQFLR
notes: also called Her2/neu.528 9-mer
B54: HER2/neu peptide, position 805, 10 amino acids (CLLDHVRENR) (peptide)
peptide: CLLDHVRENR
notes: also called Her2/neu.805 10-mer
B55: HER2/neu peptide, position 334, 10 amino acids (CSKPCARVCY) (peptide)
peptide: CSKPCARVCY
notes: also called Her2/neu.334 10-mer

Target: HLA-A*0301 (purified HLA class I molecule) (human)
Test: competition with 125I-labelled probe peptide on purified HLA-A*0301, gel filtration

In order of falling “relative binding ratio (IC50 of standard peptide / IC50 of test peptide)” value:
1. B10  0.18 ratio
2. B12  0.057 ratio
3. B7  0.043 ratio
4. B4  0.035 ratio
5. B3  0.017 ratio
6. B2  0.013 ratio
7. B5  0.0017 ratio
8. B14  0.0007 ratio
9. B1  0.0004 ratio
10. B13  0.0003 ratio
11. B11  0.0002 ratio
12. B8  0.0001 ratio
13. B9  0.0001 ratio
14. B6  -0.0002 ratio

Target: T1, HLA-A*0201 (human)
T1 construct: also called HLA-A2.1
Test: inhibition of 125I-labelled probe peptide binding to purified HLA, gel filtration

In order of falling relative binding ratio:
1. B18  0.0018 ratio (IC50 of standard peptide / IC50 of test peptide)
2. B19  0.0009 ratio (IC50 of standard peptide / IC50 of test peptide)
3. B17  0.0007 ratio (IC50 of standard peptide / IC50 of test peptide)
4. B15  0.0005 ratio (IC50 of standard peptide / IC50 of test peptide)
5. B16  0.0001 ratio (IC50 of standard peptide / IC50 of test peptide)

Target: HLA-B*5301 (human)
Test: competition vs 125I-labelled probe peptide, purified HLA, gel filtration

In order of falling IC50:
1. B24  2910 nM
2. B30  1190 nM
3. B28  620 nM
4. B29  620 nM
5. B27  517 nM
6. B21  465 nM
7. B23  332 nM
8. B31  282 nM
9. B22  274 nM
10. B25  239 nM
11. B26  37 nM
12. B20  10 nM

Target: HLA-B*5401 (human)
Test: as above

In order of falling IC50:
1. B20  200 nM
2. B26  156 nM
3. B22  50 nM
4. B23  50 nM
5. B32  28 nM
6. B27  26 nM
7. B21  15 nM
8. B25  5.9 nM
9. B31  3.8 nM
10. B28  3.4 nM
11. B30  2.7 nM
12. B29  2.4 nM
13. B33  1.5 nM

Target: HLA-B*3501 (human)
Test: as above

In order of falling IC50:
1. B28  7200 nM
2. B23  4240 nM
3. B21  2880 nM
4. B29  2670 nM
5. B27  809 nM
6. B26  655 nM
7. B22  600 nM
8. B31  600 nM
9. B25  554 nM
10. B30  400 nM
11. B24  360 nM
12. B33  277 nM
13. B32  240 nM
14. B20  10 nM

Target: HLA-B*5101 (human)
Test: as above

In order of falling IC50:
1. B33  1900 nM
2. B20  579 nM
3. B30  324 nM
4. B24  239 nM
5. B25  204 nM
6. B32  167 nM
7. B22  56 nM
8. B21  50 nM
9. B29  46 nM
10. B27  32 nM
11. B26  31 nM
12. B28  20 nM
13. B23  13 nM
14. B31  7.1 nM

Target: HLA-B*0702 (human)
Test: as above

In order of rising IC50:
1. B20  3.7 nM
2. B24  3.9 nM
3. B31  6.5 nM
4. B28  20 nM
5. B33  34 nM
6. B23  39 nM
7. B30  42 nM
8. B25  100 nM
9. B22  108 nM
10. B21  141 nM
11. B27  204 nM
12. B26  220 nM
13. B32  229 nM
14. B29  229 nM

Target: T2, HLA-A*0301 (human)
T2 construct: also called HLA-A3
Test: inhibition of 125I-labelled probe peptide binding to purified HLA-A*0301, gel filtration; ratio to standard peptide 941.12 [..] (11 nM)

In order of rising “relative binding ratio (IC50 of standard peptide / IC50 of test peptide)” value:
1. B34  0.0002
2. B36  0.0002
3. B37  0.0002
4. B39  0.0002
5. B42  0.0002
6. B41  0.0003
7. B43  0.0003
8. B38  0.0011
9. B45  0.0012
10. B40  0.0017
11. B46  0.004
12. B35  0.0058
13. B44  0.14

Target: T3, HLA-A*0301 (purified HLA class I molecule) (human)
T3 construct: also called HLA-A3
Test: competition with 125I-labelled probe peptide for purified HLA-A*0301, gel filtration

In order of rising relative binding ratio:
1. B50  -0.0008 ratio (IC50 of standard peptide / IC50 of test peptide)
2. B47  -0.0002 ratio (IC50 of standard peptide / IC50 of test peptide)
3. B49  0.0002 ratio (IC50 of standard peptide / IC50 of test peptide)
4. B52  0.0002 ratio (IC50 of standard peptide / IC50 of test peptide)
5. B54  0.0003 ratio (IC50 of standard peptide / IC50 of test peptide)
6. B55  0.0003 ratio (IC50 of standard peptide / IC50 of test peptide)
7. B53  0.0015 ratio (IC50 of standard peptide / IC50 of test peptide)
8. B48  0.0021 ratio (IC50 of standard peptide / IC50 of test peptide)
9. B51  0.022 ratio (IC50 of standard peptide / IC50 of test peptide)
